Measured values as given in patent US20250281630A1 (TORAY INDUSTRIES, published 2025).

T1: human CAPRIN-1 on the cell membrane surface of human cancer cells (human, UniProt Q14444 2-709)
T1 construct: whole, on cells
T1 sequence (looked up): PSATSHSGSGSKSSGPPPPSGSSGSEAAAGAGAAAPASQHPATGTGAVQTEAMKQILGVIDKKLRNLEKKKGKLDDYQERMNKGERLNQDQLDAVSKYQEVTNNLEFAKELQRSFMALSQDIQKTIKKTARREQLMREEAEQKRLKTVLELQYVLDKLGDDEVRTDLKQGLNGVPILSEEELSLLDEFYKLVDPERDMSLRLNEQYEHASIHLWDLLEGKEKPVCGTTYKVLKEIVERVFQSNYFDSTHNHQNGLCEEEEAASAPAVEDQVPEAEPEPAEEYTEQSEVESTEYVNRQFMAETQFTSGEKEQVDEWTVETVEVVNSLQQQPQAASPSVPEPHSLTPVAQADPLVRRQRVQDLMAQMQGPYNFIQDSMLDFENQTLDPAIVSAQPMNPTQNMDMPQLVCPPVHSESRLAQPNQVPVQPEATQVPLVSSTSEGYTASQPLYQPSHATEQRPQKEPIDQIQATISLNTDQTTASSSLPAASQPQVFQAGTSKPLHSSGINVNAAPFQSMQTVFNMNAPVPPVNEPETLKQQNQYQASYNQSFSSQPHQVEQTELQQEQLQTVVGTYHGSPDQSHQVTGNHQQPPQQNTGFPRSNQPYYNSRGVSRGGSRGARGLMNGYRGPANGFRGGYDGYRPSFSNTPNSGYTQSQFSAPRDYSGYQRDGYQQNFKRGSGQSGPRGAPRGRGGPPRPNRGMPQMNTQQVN

T2: mouse CAPRIN-1 on mouse cancer cells (mouse, UniProt Q60865 2-707)
T2 construct: whole, on cells
T2 sequence (looked up): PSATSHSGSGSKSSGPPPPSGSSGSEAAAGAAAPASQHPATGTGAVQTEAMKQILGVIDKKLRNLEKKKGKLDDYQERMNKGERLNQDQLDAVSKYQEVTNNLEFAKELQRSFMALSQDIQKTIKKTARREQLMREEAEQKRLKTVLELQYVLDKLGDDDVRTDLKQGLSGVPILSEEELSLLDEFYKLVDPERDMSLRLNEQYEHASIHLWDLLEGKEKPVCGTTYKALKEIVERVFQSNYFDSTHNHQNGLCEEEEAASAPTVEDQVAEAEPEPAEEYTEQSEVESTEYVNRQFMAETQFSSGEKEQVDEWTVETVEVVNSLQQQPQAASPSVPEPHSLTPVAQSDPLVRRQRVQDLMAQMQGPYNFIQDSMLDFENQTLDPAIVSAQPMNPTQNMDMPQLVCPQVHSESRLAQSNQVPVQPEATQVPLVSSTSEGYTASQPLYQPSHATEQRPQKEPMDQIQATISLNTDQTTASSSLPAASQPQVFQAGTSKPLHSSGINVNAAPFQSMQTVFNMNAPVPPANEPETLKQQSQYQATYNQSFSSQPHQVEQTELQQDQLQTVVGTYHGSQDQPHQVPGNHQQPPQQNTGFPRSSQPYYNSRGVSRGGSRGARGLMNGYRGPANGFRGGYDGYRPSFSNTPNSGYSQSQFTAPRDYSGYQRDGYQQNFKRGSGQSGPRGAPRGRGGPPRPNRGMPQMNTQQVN

B1: Conjugate 99 (antibody, V domains shown)
VH: GAELVRSGASVKMSCKASGYSFTDYNMYWVKQTPGQGLEWIGYIYPGNGGTNYNQKFKGKATLTADTSSSTAYMQISSLTSEDSAVYFCARDYDDGGYAMDYWGQGTTVTVSS
VL: DIQMTQSPASLSASVGETVTITCRASGNIHNYLTWYQQKQGKSPQLLVYNAKTLADGVPSRFSGSGSGTQYSLKINRLQPEDFGSYYCQHFWNIPWTFGGGTKLNSR
notes: human IgG1 constant regions; also called conjugate with MMAE using humanized antibody #13
B2: Conjugate 95 (antibody, V domains shown)
VH: AVTLDESGGGLQTPGGALSLVCKASGFTFSGYDMLWVRQAPGKGLEWVAGIGSTGGGTDYGAAVKGRATISRDNGQSTVRLQLNNLRAEDTATYYCAKVAGGCNSGYCRDSPGSIDAWGHGTEVIVS
VL: AVTQQPASVSANPGETVKITCSGGGSRNYYGWYQQKSPGSVPVTVIYYDDQRPSNIPSRFSGALSGSTSTLTITGVQADDEAVYFCGSADSNTYEGSFGAGTTLTVL
notes: human IgG1 constant regions; also called conjugate with MMAE using humanized antibody #9
B3: Conjugate 122 (antibody, V domains shown)
VH: EVQLVESGGGLVQPGGSLRLSCAASGFSLSSHSLGWVRQAPGKGLEWIGDIRSGGSAYYANWAKGRFTISRDNSKNTLYLQMNSLRAEDTAVYYCTRTNGPSDLTNRLDLWGQGTLVTVSS
VL: QVLTQSPSSLSASVGDRVTINCQASQSLYNNENLAWFQQKPGKVPKRLIYGASTLASGVSSRFSGSGSGTEFTLTISSLQCEDFAIYYCLGEFSCGSADCFAFGGGTKVEIK
notes: human IgG1 constant regions; also called conjugate with MMAE using humanized antibody #36
B4: Conjugate 124 (antibody, V domains shown)
VH: B3 VH
VL: EQVLTQSPSSLSASVGDRVTINCQASQSLYNNENLAWFQQKPGKVPKRLIYGASTLASGVSSRFSGSGSGTEFTLTISNLQPEDFAIYYCLGEFSCGSADCFAFGGGTKVEIK
notes: human IgG1 constant regions; also called conjugate with MMAE using humanized antibody #38
B5: Conjugate 100 (antibody, V domains shown)
VH: DAELVKPGASVKISCKASGYTFTDHSIHWVQQKPEQGLEWIGYISPGNGNIKYNEKFKGKATLTADKSSSTAYMQLNSLTSEDSAVYFCKRSLGRGGPYYFDYWGQGTTVTVSS
VL: DIVLTQAAPSLPVTPGESVSISCRSSKSLLHSNGNTYLYWFLQRPGQSPQLLIYRMSNLASGVPDRFSGSGSGTAFTLRISRVEAEDVGVYYCMQHREYPVTFGSGPN
notes: human IgG1 constant regions; also called conjugate with MMAE using humanized antibody #14

Each binder was assayed against T1, human CAPRIN-1 on the cell membrane … (assay: flow cytometry, BT474 cells).
Experimental: The tube was left at 4° C. for 1 hour. After washing with PBS, Alexa 488-labeled anti-rabbit IgG (H+L) diluted 100-fold with PBS(-) containing 0.5% FBS (0.5% FBS-PBS(-)) was added thereto, and the tube was left at 4° C. for 1 hour. After washing with 0.5% FBS-PBS(-), the cells were reacted with BD Horizon Fixable Viability Stain (FVS) Reagents (FVS450, Becton, Dickinson and Company) to stain dead cells, and the fluorescence intensity was then measured using FACSFortessa™ (Becton, Dickinson and Company).

binding result | Binder
binds | B1
binds | B2
binds | B3
binds | B4
binds | B5

What follows are binders tested against T2, mouse CAPRIN-1 on mouse cancer cells (assay: flow cytometry, Renca and 4T1 cells).

binding result | Binder
binds | B1
binds | B2
binds | B3
binds | B4
binds | B5
